The target in data set [1] is T1, SERK3^250–615 (entire cytoplasmic portion, JM–KD–CT) (Arabidopsis thaliana), Q94F62.
T1 chain: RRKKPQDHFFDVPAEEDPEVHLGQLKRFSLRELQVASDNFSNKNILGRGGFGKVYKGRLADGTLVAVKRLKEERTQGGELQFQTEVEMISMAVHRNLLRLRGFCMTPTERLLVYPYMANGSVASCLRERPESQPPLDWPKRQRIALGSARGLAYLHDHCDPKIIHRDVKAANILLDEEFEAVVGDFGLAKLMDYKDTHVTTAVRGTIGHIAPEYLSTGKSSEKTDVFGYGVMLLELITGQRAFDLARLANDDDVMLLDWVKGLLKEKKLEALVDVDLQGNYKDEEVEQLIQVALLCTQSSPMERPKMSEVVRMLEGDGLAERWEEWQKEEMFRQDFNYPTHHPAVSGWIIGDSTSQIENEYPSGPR
The data set is described as follows: SEC. The settings on record: remark: other sources report otherwise.

The data set “SEC” deals with the molecule itself. The data set is described as follows: SEC.

The text below walks through data of paper PMC4260089 (The Plant Journal, 2014).

B1: SERK3^250–615 (entire cytoplasmic portion, JM–KD–CT), Q94F62 250-615 (domain or fragment)
chain: T1 chain
B1 returned a stoichiometry N in data set [1] of 2.

B2: SERK2^281–628 (cytoplasmic portion, JM–KD–CT) (domain or fragment, Arabidopsis thaliana, UniProt Q9XIC7 281-628, looked up)
chain: EDPEVHLGQLKRFSLRELQVATDSFSNKNILGRGGFGKVYKGRLADGTLVAVKRLKEERTPGGELQFQTEVEMISMAVHRNLLRLRGFCMTPTERLLVYPYMANGSVASCLRERPPSQLPLAWSIRQQIALGSARGLSYLHDHCDPKIIHRDVKAANILLDEEFEAVVGDFGLARLMDYKDTHVTTAVRGTIGHIAPEYLSTGKSSEKTDVFGYGIMLLELITGQRAFDLARLANDDDVMLLDWVKGLLKEKKLEMLVDPDLQSNYTEAEVEQLIQVALLCTQSSPMERPKMSEVVRMLEGDGLAEKWDEWQKVEVLRQEVELSSHPTSDWILDSTDNLHAMELSGPR
As for B2, the “stoichiometry N” value in “SEC” was determined as 2.
